Experiments:
PAR1 = target: T1, PAR1 (Homo sapiens, UniProt P25116); test: Binding of MBP-Gαq to purified, reconstituted activated PAR1 (ELISA); set-up: made in house; host or cells: Sf9 insect cells infected with ThR/pBluebac recombinant virus, purified on an anti-PAR1 monoclonal antibody column; details: purified reconstituted PAR1 with thrombin receptor activating peptide
T1 sequence (P25116 22-425): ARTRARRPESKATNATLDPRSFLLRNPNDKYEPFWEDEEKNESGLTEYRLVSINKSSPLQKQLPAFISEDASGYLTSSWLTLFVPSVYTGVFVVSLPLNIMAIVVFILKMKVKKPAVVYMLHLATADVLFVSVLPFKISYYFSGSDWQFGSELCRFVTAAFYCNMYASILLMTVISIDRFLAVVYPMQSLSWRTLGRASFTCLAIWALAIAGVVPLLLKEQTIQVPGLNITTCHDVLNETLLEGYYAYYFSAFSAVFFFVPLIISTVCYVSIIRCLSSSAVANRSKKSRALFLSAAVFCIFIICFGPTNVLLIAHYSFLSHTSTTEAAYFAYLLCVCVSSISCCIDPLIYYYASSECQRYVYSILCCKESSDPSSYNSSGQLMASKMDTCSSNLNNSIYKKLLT
Procedure: Microtiter wells were coated with purified, reconstituted PAR1 in the presence of […] thrombin receptor activating peptide, as described above in Example 6. Purified maltose binding protein-Gαq (MBP-Gαq) was added at the concentrations indicated in FIG. 11 and incubated one hour on a shaker at 4° C. The wells were rinsed and then probed with a rabbit anti-maltose binding protein antibody, followed by alkaline phosphatase conjugated secondary antibodies, as described above. Substrate was added and the color was allowed to develop about 20 minutes. Absorbance at 405 nm was measured and dose-response curves were calculated using GraphPad Prism (version 2.0). See results in FIG. 11.

rhodopsin = target: T2, rhodopsin (Bos taurus, UniProt P02699); test: "extra MII" assay: stabilization of metarhodopsin II; assay type: biochemical, bovine
T2 construct: Bovine rod outer segments (rhodopsin-containing membranes) were prepared from fresh retinas; from tissue; host or cells: bovine retina, rod outer segment membranes (EDTA- and urea-washed)
Text: Rhodopsin can be measured spectrophotometrically in many of its conformational states. The high affinity, biologically active rhodopsin state can be easily differentiated from its precursor, MI, by the “extra” MII assay. See Example 35. This assay relies on the observation that under conditions of high pH and low temperature, MII is stabilized in the presence of Gt and can be spectrophotometrically measured. The ability of the C-terminal peptide to stabilize Meta II in the same manner as the heterotrimeric Gt, provides the tools to investigate the structural basis of the interaction of G proteins with the agonist binding sites of activated receptors.
For the “extra MII” assay, EDTA-washed rhodopsin (Example 5; 5 μM) is incubated in a 50 mM HEPES buffer, pH 8.2, with 100 mM NaCl, 1 mM MgCl2, and 1 mM DTT at 5.3° C., in the absence or presence of varying concentrations of Gt340-350 analogs or Gt. The sample is maintained at 5.4° C. using a water-jacketed and thermostated circulator cuvette holder in an SLM Aminco DW2000 spectrophotometer at 390 and 440 nm. A flash of light bleaching 10% of the rhodopsin is presented and after a 1 min incubation, a second spectrum is measured and the difference in spectrum calculated. “Extra” MII is calculated as the difference between the absorbance at 390 and 440. Dose response curves of MII stabilization by αt340350 (λ), mutant α340-350K341L(ν), and heterotrimeric Gt (v) were analyzed by non-linear regression using the program GraphPad PRISM and are shown in FIG. 23.
EDTA-washed rhodopsin (5 μM) was incubated in a 50 mM HEPES buffer, pH 8.2, with 100 mM NaCl, 1 mM MgCl2, and 1 mM DTT at 5.3° C., and “extra” MII was measured. For compounds that enhanced MBP-8 binding over 25% using the color coded readout, dose studies were performed to generate EC50 curves. Table XXII below provides the calculated EC50 for metarhodopsin II stabilization of each compound.

[1] = target: T3, light-activated rhodopsin (Bos taurus, UniProt P02699); test: Competition of heterotrimeric Gt with MBP high affinity peptide fusion proteins for rhodopsin; assay type: binding, bovine; details: 1 μM heterotrimeric Gt
T3 construct: Bovine rod outer segments (rhodopsin-containing membranes) were prepared from fresh retinas; from tissue; host or cells: bovine retina, rod outer segment membranes (EDTA- and urea-washed)
Procedure: When light-activated rhodopsin was screened for peptides based on the C-terminus of Gt, a large number of high-affinity sequences were obtained. Binding of MBP fusion proteins containing the high affinity peptide from the library (sequences from clones 8, 9, 10, 18, 23, 24, as well as pELM17 which encodes the wild-type peptide sequence, and pELM6 which contains no peptide; MBP-8, MBP-9, MBP-10, MBP-18, MBP-23, MBP-24, MBP-pELM17) were assessed for their ability to bind rhodopsin (0.5 μg rhodopsin/well) in the presence or absence of heterotrimeric Gt.
Lysate (50 μl) from each clone was added and incubated in the light. After 45 minutes, 1 μM heterotrimeric Gt was added and the solution incubated for 30 minutes. Anti-MBP antibody was added, followed by goat anti-rabbit alkaline phosphatase conjugated antibody and substrate. The color was allowed to develop.

T3 sequence (P02699 whole entry, the tested form may be a part): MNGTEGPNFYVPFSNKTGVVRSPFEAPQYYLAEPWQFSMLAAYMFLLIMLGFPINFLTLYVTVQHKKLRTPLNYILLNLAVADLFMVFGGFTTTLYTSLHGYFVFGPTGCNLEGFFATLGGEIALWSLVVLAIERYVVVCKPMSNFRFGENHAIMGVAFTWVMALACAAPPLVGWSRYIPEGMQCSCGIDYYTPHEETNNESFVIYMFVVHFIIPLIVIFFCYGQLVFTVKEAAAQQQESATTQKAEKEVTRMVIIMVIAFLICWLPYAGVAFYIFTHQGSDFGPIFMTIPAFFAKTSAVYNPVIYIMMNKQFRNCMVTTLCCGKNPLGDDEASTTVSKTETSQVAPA
T2 sequence (P02699 whole entry): as the sequence (P02699 whole entry, the tested form may be a part) above

Substance	IC50 (PAR1) [nM]	stabilization of MII (in words) (rhodopsin)	effect on high affinity peptide fusion protein binding to light-activated rhodopsin (in words) [1]
MBP-Gαq: purified maltose binding protein fused to native Gαq C-terminal peptide	214		
heterotrimeric Gt: heterotrimeric G protein, transducin (Gt) [reference compound]		stabilize the active form of rhodopsin	competitively inhibited
